Experimental data reported in paper PMC3229578, “Brachyury and Related Tbx Proteins Interact with the Mixl1 Homeodomain Protein and Negatively Regulate Mixl1 Transcriptional Activity” (PLoS ONE, 2011).
One block for each binder: values may come before it.

What was measured:
Assay in all cases: pull-down; bacterially made, purified His-Brachyury derivatives incubated with GST-Mixl1 derivatives or GST alone on glutathione beads in ELB150 buffer, 4°C, 3 h; washed in ELB300 (0.3 M KCl); Western blot with anti-T N19
Conditions in all cases: both partners purified
His mT-box = target: T1, His mT-box (mouse, UniProt P20293 1-230)
T1 construct: Brachyury (T), mouse, T-box domain aa 1-230; also called His-Brachyury T-box domain; T-box domain (aa 1–230) of Brachyury; source: E. coli BL21 RIPL(DE3), purified (Talon resin)
T1 sequence (looked up): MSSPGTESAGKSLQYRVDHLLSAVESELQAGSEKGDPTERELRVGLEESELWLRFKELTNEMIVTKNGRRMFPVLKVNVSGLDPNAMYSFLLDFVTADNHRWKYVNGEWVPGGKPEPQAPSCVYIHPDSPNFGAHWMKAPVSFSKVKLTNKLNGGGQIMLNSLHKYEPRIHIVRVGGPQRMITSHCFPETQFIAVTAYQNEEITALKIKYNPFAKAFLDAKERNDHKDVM

His-mBrachyury = target: T2, His-mBrachyury (mouse, UniProt P20293 1-436)
T2 construct: Brachyury (T), mouse; in pET15b by Gateway cloning; also called mT; recombinant His-tagged T protein; source: E. coli BL21 RIPL(DE3), purified (Talon resin)
T2 sequence (looked up): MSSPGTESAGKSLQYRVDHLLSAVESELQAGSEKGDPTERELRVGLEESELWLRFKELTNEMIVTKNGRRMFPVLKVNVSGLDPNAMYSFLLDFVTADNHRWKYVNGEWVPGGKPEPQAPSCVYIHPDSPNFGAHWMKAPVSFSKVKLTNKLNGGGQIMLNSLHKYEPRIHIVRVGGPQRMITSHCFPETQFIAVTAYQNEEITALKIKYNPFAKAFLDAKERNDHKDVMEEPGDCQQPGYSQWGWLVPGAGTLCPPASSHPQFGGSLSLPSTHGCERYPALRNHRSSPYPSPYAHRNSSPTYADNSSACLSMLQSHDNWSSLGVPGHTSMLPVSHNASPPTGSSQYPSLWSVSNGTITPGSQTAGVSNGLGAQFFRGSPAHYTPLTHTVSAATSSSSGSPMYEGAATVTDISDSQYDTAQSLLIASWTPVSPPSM

His-hBrachyury = target: T3, His-hBrachyury (human, UniProt O15178 1-435)
T3 construct: Brachyury (T), human; in pET15b by Gateway cloning; also called hT; pET15b-hBrachyury; source: E. coli BL21 RIPL(DE3), purified (Talon resin)
T3 sequence (looked up): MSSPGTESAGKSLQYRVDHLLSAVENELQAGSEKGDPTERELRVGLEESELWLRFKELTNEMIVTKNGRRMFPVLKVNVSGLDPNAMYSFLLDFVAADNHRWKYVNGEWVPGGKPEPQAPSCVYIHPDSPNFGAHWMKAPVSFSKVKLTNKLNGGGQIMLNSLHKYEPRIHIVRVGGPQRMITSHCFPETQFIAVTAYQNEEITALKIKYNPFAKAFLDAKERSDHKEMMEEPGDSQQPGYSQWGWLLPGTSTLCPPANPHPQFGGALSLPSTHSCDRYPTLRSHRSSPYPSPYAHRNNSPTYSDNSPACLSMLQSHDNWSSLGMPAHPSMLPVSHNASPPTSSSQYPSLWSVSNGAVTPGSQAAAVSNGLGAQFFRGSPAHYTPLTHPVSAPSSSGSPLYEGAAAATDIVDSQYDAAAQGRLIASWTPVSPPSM

- binding result (His mT-box): binds
B1: GST mMixl1 HD (domain or fragment)
chain: not shown
notes: Made as one of the 'GST-Mixl1 derivatives' of the methods; source: E. coli BL21 RIPL(DE3), purified (glutathione agarose)

- binding result (His-mBrachyury): binds
B2: GST-mMixl1 (bacterial) (natural protein)
chain: not shown
notes: Mixl1 homeodomain protein, mouse; in pGEX2T by Gateway cloning; also called recombinant GST mMixl1; pGEX-mMixl1; source: E. coli BL21 RIPL(DE3), purified (glutathione agarose)

- binding result (His-hBrachyury): binds
B3: GST-hMixl1 (natural protein)
chain: not shown
notes: MIXL1, the human ortholog of Mixl1; in pGEX2T by Gateway cloning; also called pGEX-hMixl1; source: E. coli BL21 RIPL(DE3), purified (glutathione agarose)
